Sequences and labels used below:
B1: FIXa Y259F/K265T/Y345T (protein)
chain 1: not shown
chain 2: not shown
B2: FIXa Y155F/K247N/N249S/R318Y/R338E/E410N (protein)
chain 1: not shown
chain 2: not shown
B3: FIXa Y155F/I251S/R318Y/R338E/R403E/E410N (protein)
chain 1: not shown
chain 2: not shown
B4: FIXa I251S/R318Y/R338E/E410N (protein)
chain 1: not shown
chain 2: not shown
B5: FIXa Y155F/K247N/N249S/R318Y/R338E/R403E/E410N (protein)
chain 1: not shown
chain 2: not shown
B6: FIXa Y155F/K228N/R318Y/R338E/R403E/E410N (protein)
chain 1: not shown
chain 2: not shown
B7: FIXa D104N/K106S/K247N/N249S/R318Y/R338E/R403E/E410N (protein)
chain 1: not shown
chain 2: not shown
B8: FIXa I251S/R318Y/R338E/R403E/E410N (protein)
chain 1: not shown
chain 2: not shown
B9: FIXa D85N/K228N/R318Y/R338E/R403E/E410N (protein)
chain 1: not shown
chain 2: not shown
B10: FIXa K247N/N249S/R318Y/R338E/R403E/E410N (protein)
chain 1: not shown
chain 2: not shown
B11: FIXa A103N/N105S/K247N/N249S/R318Y/R338E/R403E/E410N (protein)
chain 1: not shown
chain 2: not shown
B12: FIXa K247N/N249S/R318Y/R338E/E410N (protein)
chain 1: not shown
chain 2: not shown
B13: FIXa R318Y/R338E/R403E/E410S (protein)
chain 1: not shown
chain 2: not shown

Data on 13 proteins can be found in patent US11491212.

This data set deals with Factor X (FX), P00742.
Chain of Factor X (FX), P00742 (P00742 whole entry, looked up): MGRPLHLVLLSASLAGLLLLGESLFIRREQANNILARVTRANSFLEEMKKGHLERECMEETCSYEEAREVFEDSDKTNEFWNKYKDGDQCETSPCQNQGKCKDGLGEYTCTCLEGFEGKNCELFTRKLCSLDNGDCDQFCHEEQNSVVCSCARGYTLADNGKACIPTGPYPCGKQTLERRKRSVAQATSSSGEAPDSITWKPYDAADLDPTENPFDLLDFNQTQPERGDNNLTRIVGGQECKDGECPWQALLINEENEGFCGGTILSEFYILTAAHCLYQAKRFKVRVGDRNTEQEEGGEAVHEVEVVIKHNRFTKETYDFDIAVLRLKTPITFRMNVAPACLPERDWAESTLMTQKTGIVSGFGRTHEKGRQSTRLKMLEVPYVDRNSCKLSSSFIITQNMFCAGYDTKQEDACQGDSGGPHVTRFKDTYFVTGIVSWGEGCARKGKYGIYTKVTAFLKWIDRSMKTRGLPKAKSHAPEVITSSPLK
Consider B1, for which the Michaelis constant (KM) was determined as 0.0309 µM and the kcat (Catalytic activity of FIXa variants) was determined as 1.7 s⁻¹.
Regarding B2, the Michaelis constant (KM) was determined as 0.0153 µM, the kcat (Catalytic activity of FIXa variants) came out at 4.3 s⁻¹ and the kcat/KM was found to be 3e+08 M⁻¹ s⁻¹.
In the case of B3, the KM came to 0.0433 µM and the kcat (Catalytic activity of FIXa variants) turned out to be 7.2 s⁻¹.
On to B4, for which the KM was determined as 0.0162 µM, the kcat (Catalytic activity of FIXa variants) was 6.2 s⁻¹ and the kcat/KM was found to be 3.8e+08 M⁻¹ s⁻¹.
Turning to B5, the KM stood at 0.0391 µM, the kcat (Catalytic activity of FIXa variants) stood at 6.5 s⁻¹ and the catalytic efficiency (kcat/KM) worked out at 1.8e+08 M⁻¹ s⁻¹.
On the same counts, the results for B6 are 0.048 µM, 9.7 s⁻¹ and 2e+08 M⁻¹ s⁻¹.
As for B7, the KM was found to be 0.059 µM and the kcat (Catalytic activity of FIXa variants) came to 5.2 s⁻¹.
The like results for B8 were, in that order, 0.0334 µM and 4.8 s⁻¹.
On the same counts, the results for B9 are 0.0393 µM and 6 s⁻¹.
On the same counts, the results for B10 are 0.0392 µM and 5.8 s⁻¹.
On to B11, for which the KM amounted to 0.0397 µM, the kcat (Catalytic activity of FIXa variants) came out at 4.1 s⁻¹ and the kcat/KM was found to be 1e+08 M⁻¹ s⁻¹.
Regarding B12, the KM was 0.0166 µM and the kcat (Catalytic activity of FIXa variants) was 3.8 s⁻¹.
In the case of B13, the KM is 0.0351 µM, the kcat (Catalytic activity of FIXa variants) is 5.8 s⁻¹ and the kcat/KM came out at 1.8e+08 M⁻¹ s⁻¹.

One may read the KM as the substrate concentration at which the rate is half of its maximum. Broadly, the kcat/KM is the turnover number divided by the Michaelis constant.
